# Assay results published in publication PMC10318062 (Nature Communications, 2023).
# Target: SARS-CoV-2 hexaproline stabilized pre-fusion spike glycoprotein (S6P) (SARS-CoV-2, ancestral (Wuhan-Hu-1 …, UniProt P0DTC2, stabilised))
row,Binder,binding result
1,"S2X35 (antibody, V domains shown) VH: QVQLVQSGAEVKKPGASVKVSCKASGYTFTNYGISWVRQAPGQGLEWMGWISAYKGNTNYAQKLQGRVTMTTDTSTSTAYMELRSLRSDDTAVYYCARPDYQVLGYDFWIGYYGMDVWGQGTTVIVSS VL: QSVLTQPPSVSGAPGQRVTISCTGSSSNIGAGYDVHWYQQLPGTAPKLLIYGNTNRPSGVPDRFSGSKSGTSASLAITGLQAEDEADYYCQSYDSSLSGSEVVFGGGTKLTVL",binds
2,"S304 (antibody, V domains shown) VH: VQLVESGGGLVQPGGSLRLSCAASGFTFSSYDMHWVRQTTGKGLEWVSTIGTAGDTYYPDSVKGRFTISREDAKNSLYLQMNSLRAGDTAVYYCARGDSSGYYYYFDYWGQGTLLTVSS VL: DIEMTQSPSSLSAAVGDRVTITCRASQSIGSYLNWYQQKPGKAPKLLIYAASSLQSGVPSRFSGSGSGTDFTLTISSLQPEDFAIYYCQQSYVSPTYTFGPGTKVDIK",binds
3,"COVA1-16 (antibody, V domains shown) VH: QVQLVQSGAEVKKPGASVKVSCKASGYTFTSYYMHWVRQAPGQGLEWMGIINSSGGSTSYAQKFQGRVTMTRDTSTSTVYMELSSLRSEDTAVYYCARPPRNYYDRSGYYQRAEYFQHWGQGTLVTVSS VL: DIQLTQSPSSLSASVGDRVTITCQASQDISNYLNWYQQRPGKAPKLLIYDASNLETGVPSRFSGSGSGTDFTFTISSLQPEDIATYYCQQYDNPPLTFGGGTKLEIK",binds
4,"S2E12 (antibody, V domains shown) VH: not shown VL: DIVLTQTPGTLSLSPGERATLSCRASQSVSSSYLAWYQQKPGQAPRLLIYGASSRATGIPDRFSGSGSGTDFTLTISRLEPEDFAVYYCQQYVGLTGWTFGQGTKVEIK",binds
5,"P2B-2F6 (antibody, V domains shown) VH: QVQLQESGPGLVKPSETLSLTCTVSGYSISSGYYWGWIRQPPGKGLEWIGSIYHSGSTYYNPSLKTRVTISVDTSKNQFSLKLSSVTAADTAVYYCARAVVGIVVVPAAGRRAFDIWGQGTMVTVSS VL: QSALTQPPSASGSPGQSVTISCTGTSSDVGGYNYVSWYQQHPGKAPKLMIYEVSKRPSGVPDRFSGSKSGNTASLTVSGLQAEDEADYYCSSYAGSNNLVFGGGTKLTVL",binds
6,"S2M11 (antibody, V domains shown) VH: EVQLVQSGAEVKKPGASVKVSCKASGYTFTGYYMHWVRQAPGQGLEWMGWINPISSGTSYAQTFQGRVTMTSDTSITTAYMELSRLRSDDTAVYYCARAAPFYDFWSGYSYFDYWGQGTLVTVSS VL: not shown",binds

# Target: SARS-CoV-2 Receptor Binding Domain (RBD) (SARS-CoV-2, UniProt P0DTC2)
row,Binder,binding result
1,"COVA2-24 (antibody, V domains shown) VH: EVQLVQSGAEVKKPGESLRISCKGSGYSFTSYWISWVRQMPGKGLEWMGRIDPSDSYTNYSPSFQGHVTISADKSISTAYLQWSSLKASDTAMYYCARPNPAGGYDSSGWVDAFDIWGQGTRVTVSS VL: not shown",binds
2,"COVA2-07 (antibody, V domains shown) VH: EVQLVETGGGLIQPGGSLRLSCAASGLTVSSNYMNWVRQAPGKGLEWVSVIYSGGSTYYADSVKGRFTISRDNSKNTLYLQMNSLRAEDTAVYYCAREAYGMDVWGQGTMVTVSS VL: not shown",binds
3,"COVA2-11 (antibody, V domains shown) VH: EVQLVESGAEVKKPGSSVKVSCKASGGTLSSYAISWVRQAPGQGLEWMGGIIPIFGTANYAQKFQGRVTITTDESTSTAYMELSSLRSEDTAVYYCARGPRGCSSTSCYGSYFDYWGQGTLVTVSS VL: not shown",binds
4,"COVA1-16 (antibody, V domains shown) VH: QVQLVQSGAEVKKPGASVKVSCKASGYTFTSYYMHWVRQAPGQGLEWMGIINSSGGSTSYAQKFQGRVTMTRDTSTSTVYMELSSLRSEDTAVYYCARPPRNYYDRSGYYQRAEYFQHWGQGTLVTVSS VL: DIQLTQSPSSLSASVGDRVTITCQASQDISNYLNWYQQRPGKAPKLLIYDASNLETGVPSRFSGSGSGTDFTFTISSLQPEDIATYYCQQYDNPPLTFGGGTKLEIK",binds
5,"COVA2-05 (antibody, V domains shown) VH: EVQLLESGAEVKKPGESLKISCKGSGYSFTSYWIGWVRQMPGKGLEWMGIIYPGDSDTRYSPSFQGQVTISADKSISTAYLQWSSLKASDTAMYYCARHMRPSIAARPGYQYYMDVWGKGTRVTVSS VL: not shown",binds
